Source: patent US20240115720A1 (published 2024)
Like-named read-outs stand apart in the source and are kept apart here.

T1: Recombinant Human DLL3 Protein (amino acids Ala27-Ala479, cat #9749-DL, R&D Systems) (UniProt Q9NYJ7 27-479)
T1 chain: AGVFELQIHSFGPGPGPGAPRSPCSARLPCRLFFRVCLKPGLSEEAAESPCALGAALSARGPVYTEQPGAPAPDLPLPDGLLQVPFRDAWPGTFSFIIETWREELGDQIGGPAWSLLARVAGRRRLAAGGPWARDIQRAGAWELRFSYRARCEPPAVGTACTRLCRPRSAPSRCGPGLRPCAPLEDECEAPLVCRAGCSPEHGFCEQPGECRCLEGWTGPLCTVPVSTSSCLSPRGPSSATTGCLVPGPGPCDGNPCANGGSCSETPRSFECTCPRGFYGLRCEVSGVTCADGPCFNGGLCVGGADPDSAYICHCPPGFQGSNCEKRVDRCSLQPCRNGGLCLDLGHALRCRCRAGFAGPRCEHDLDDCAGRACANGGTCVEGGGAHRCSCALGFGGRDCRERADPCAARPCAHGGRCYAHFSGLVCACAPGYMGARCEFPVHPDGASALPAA


Assays:
Experiment in all cases: BLI (Octet HTX)
[1] = target: T1, Recombinant Human DLL3 Protein (amino …)
[2] = target: T1, Recombinant Human DLL3 Protein (amino …)
[3] = target: T1, Recombinant Human DLL3 Protein (amino …)

Row | Binder | Kd [1] [nM] | Kd [2] [nM] | Kd [3] [nM]
1 | 6-G23-F (antibody, V domains shown) VH: QVQLVQSGAEVKKPGASVKVSCKASGYTFTSYYIHWVRQAPGQGLEWMGIIDPSDGSTNYAQKFQGRVTMTRDTSTSTVYMELSSLRSEDTAVYYCARDREYNYYGLDVWGQGTTVTVSS VL: not shown | 0.16 | 0.16 | 
2 | 10-O18-A (antibody, V domains shown) VH: QVQLQESGPGLVKPSETLSLTCTVSGGSINSYYWSWIRQPPGKGLEWIGYIFYSGITNYNPSLKSRVTISLDTSKNQFSLKLSSVTAADTAVYYCARIGVAGFYFDYWGQGTLVTVSS VL: not shown | 0.62 |  | 0.602
3 | 7-I1-B (antibody, V domains shown) VH: EVQLVESGGGLVKPGGSLRLSCAASGFTFSNTWMSWVRQAPGKGLEWVGRIKSKSDGGTTDYAAPVKGRFTISRDDSKNTLYLQMNSLKTEDTAVYYCTQYYWNSFDYWGQGTLVTVSS VL: not shown | 0.68 | 0.686 | 
4 | 2-C8-A (antibody, V domains shown) VH: EVQLVESGGGLVQPGGSQRLSCAASGFTFSSYWMNWVRQAPGKGLEWVANIKEDGSEKYYVDSVKGRFTISRDNAKNSLYLQMNSLRAEDTAVYYCARDPGWAPFDYWGQGTLVTVSS VL: DIQMSQSPSSLSASVGDRVTITCRASQGISNYLAWFQQKPGKAPKSLIYAASSLQSGVPSKFSGSGSGTDFTLAISSLQPEDFATYYCQQYNSFPYTFGQGTTLEIK | 0.668 |  | 0.668
